Measurements reported in the supplement of paper PMC7125110.
± gives the standard error. Variants at the floor of the assay were thinned out.

B1: glmS ribozyme (parent)
chain: AUAAAAGCGCCAGAACUACAGAAAUGUAGUUGACGAGGAGGAGGUUUAUCGAAUUUUCGGCGGAUGCCUCCAAA

Columns and labels:
Conditions in all cases: with glucosamine-6-phosphate
glucosamine-6-phosphate [1] = variants of: B1; assay: self-cleavage kobs at 640 uM GlcN6P; higher = faster cleavage; RNA array
Outline: (§1)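 Glucosamine-6-phosphate (40 μM to 10 mM) in HEPES/KCl/Mg(OAc)2 buffer was flowed over sequenced MiSeq chips, and tiles were imaged over ~14 h. Barcoded ribozyme variants there had been transcribed in situ by E. coli RNA polymerase and were tracked through a hybridised Cy3 probe at 37 °C. One- or two-exponential decay fits to per-tile medians, normalised to baseline and to non-cleaving reference variants, gave kobs. kcat and KM came from weighted Michaelis–Menten fits across concentrations.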

glucosamine-6-phosphate [2] = variants of: B1; assay: self-cleavage kobs at 2500 uM GlcN6P; higher = faster cleavage; RNA array
Outline: as §1

glucosamine-6-phosphate [3] = variants of: B1; assay: self-cleavage kobs at 10000 uM GlcN6P; higher = faster cleavage; RNA array
Outline: as §1

Variant | self-cleavage kobs at 640 uM GlcN6P (glucosamine-6-phosphate [1]) [s⁻¹] | self-cleavage kobs at 2500 uM GlcN6P (glucosamine-6-phosphate [2]) [s⁻¹] | self-cleavage kobs at 10000 uM GlcN6P (glucosamine-6-phosphate [3]) [s⁻¹]
C16U C61A G63U | < 1e-05 |  | 
A33G A39C G41A C50A | < 1e-05 |  | 
U31A G32C G60A G66A | < 1e-05 |  | 
A6U U55G G59C U69C | 0.000135 ± 5.3e-05 | 5.57e-05 ± 2.7e-05 | 
U47G G62U | < 1e-05 |  | 
A33U C34G | < 1e-05 | < 1e-05 | < 1e-05
U47A A52U A64G | 7.01e-05 ± 1.7e-05 | 0.000177 ± 5.4e-05 | 
A6U G29A G44U | < 1e-05 |  | 
G43U C50G C70G | < 1e-05 |  | 
G29C G35C G38U G51U G59A | < 1e-05 | < 1e-05 | 
A6U U45C C71U | < 1e-05 | < 1e-05 | 
A33U G37A G59A | < 1e-05 |  | 
C10U C16U C71G | 6.17e-05 ± 2.9e-05 |  | 
A33G G59A | < 1e-05 |  | < 1e-05
C11U A15C G29C G32U C50G | 0.000512 ± 0.00014 | 0.000149 ± 3.9e-05 | 
G35A G41U U54C | < 1e-05 | < 1e-05 | 
A48G C58A C67G C70U | 0.000135 ± 4.4e-05 | 6.91e-05 ± 2.5e-05 | 4.32e-05 ± 1.3e-05
G9A U31G A52C | < 1e-05 |  | 
G32A A53G U56G | 7.56e-05 ± 2.8e-05 | 0.000272 ± 8.6e-05 | 
G40A U65G G66U | 0.00012 ± 2.6e-05 | 0.000547 ± 0.00026 | 
C34U C58A G59U | < 1e-05 | < 1e-05 | 
U30G U31C A39U | 0.000202 ± 6.1e-05 |  | 0.00122 ± 0.00026

Variant | self-cleavage kobs at 640 uM GlcN6P (glucosamine-6-phosphate [1]) [s⁻¹] | self-cleavage kobs at 2500 uM GlcN6P (glucosamine-6-phosphate [2]) [s⁻¹] | self-cleavage kobs at 10000 uM GlcN6P (glucosamine-6-phosphate [3]) [s⁻¹]
C8G C11A A39C | < 1e-05 |  | 
G32C G51U C70A | 0.000153 ± 5.2e-05 |  | 7.14e-05 ± 3e-05
A12G A33G G40C A52G U54A C58A | < 1e-05 |  | 
A12G A14G U57A C68A U69G | 0.000246 ± 8e-05 | 7.01e-05 ± 3.5e-05 | 
A12G A14U C16G U46A A53U | < 1e-05 |  | 
G29U G38U U57A G59C | < 1e-05 |  | 
G60U C67G C68U C70G | < 1e-05 |  | 
C16U A39C U65G | 0.000131 ± 3.8e-05 | 8.33e-05 ± 2.6e-05 | 0.000837 ± 0.00011
A33U G41C G51U U55A | < 1e-05 |  | < 1e-05
U57G A64U U69G | 0.000149 ± 5.9e-05 | 6.09e-05 ± 1.5e-05 | 
G7U A48U C50A C67G | 0.000229 ± 8.3e-05 |  | 
G41C G44A C70G | 0.00128 ± 0.00037 | 0.00311 ± 0.00077 | 
G7U G40A G43C | < 1e-05 | < 1e-05 | 
G13A A52C G63U | < 1e-05 |  | 
C11G A33U U54A U65G | < 1e-05 |  | 
A14G G29U A39U | 0.00293 ± 0.0011 |  | 
C8U C10U U45C | < 1e-05 | < 1e-05 | 
A36G G37U A42C G44U | < 1e-05 |  | < 1e-05
A42U G59C G60A | < 1e-05 |  | 
C16A G41U G59A | < 1e-05 | < 1e-05 | 
A36U C61U C71U | < 1e-05 |  | < 1e-05
C34G G60A G62C U69G | < 1e-05 |  | 

Variant | self-cleavage kobs at 640 uM GlcN6P (glucosamine-6-phosphate [1]) [s⁻¹] | self-cleavage kobs at 2500 uM GlcN6P (glucosamine-6-phosphate [2]) [s⁻¹] | self-cleavage kobs at 10000 uM GlcN6P (glucosamine-6-phosphate [3]) [s⁻¹]
A14G A33U G35C | < 1e-05 |  | 
G37U G38U C68A | 0.00155 ± 0.00045 |  | 
A6C G9C G41U | < 1e-05 | < 1e-05 | 
A6C G29U A33U | < 1e-05 |  | 
G35U A39G G59U | < 1e-05 |  | 
A39G G60U C67G | < 1e-05 | < 1e-05 | < 1e-05
G29U G40C A52G C58A C68A | < 1e-05 | < 1e-05 | 
G41C G60U U65C C67G C68A | < 1e-05 |  | 
A33C G38C U55C C61G C71U | < 1e-05 | < 1e-05 | 
A33C U45C U56G G62A U65C | < 1e-05 |  | 
G13A C50G U55A C67U | 0.000168 ± 8.1e-05 | 7.15e-05 ± 2.6e-05 | 
C8U U30A G62C | < 1e-05 |  | 
G9C G37C U46C C50G | < 1e-05 | < 1e-05 | 
A6U C16U C61U C71U | < 1e-05 | < 1e-05 | 
A15G U30C C34G A36C G41U U49A C70A | < 1e-05 | < 1e-05 | 
G41C U47A U56C | < 1e-05 |  | 
G7U U46C U65A | < 1e-05 | < 1e-05 | 
C11G G59C C67G | 0.000111 ± 4e-05 | 0.00023 ± 6.2e-05 | 
C11G C50G C61U | 7.22e-05 ± 3.5e-05 | 6.44e-05 ± 2.1e-05 | 
G29U A33C C34A G37A C50U U69G | 0.000251 ± 5.9e-05 |  | 0.000226 ± 4.5e-05
G37U G38U G43A | < 1e-05 |  | 
C34A G38U A53G | < 1e-05 |  | 
